Measured values published in US6512004B2, “Promoters of neural regeneration” (The Regents of the University of California, priority 1998, dated 2003).

Test system: growth cones of Xenopus spinal neurons
Test: Growth cone turning in gradients of purified MAG or purified myelin
Type: cell-based
Settings: purified MAG 150 μg/ml, purified myelin 25 μg/ml in the pipette; with or without Sp-cAMPS, 8-br-cGMP, low Ca2+
Method: FIG. 5. Growth cone turning induced by purified myelin. A gradient of purified myelin (25 μg/ml in the pipette) was applied in normal culture medium (open circles), in medium containing Sp-cAMPS (20 μM, solid circles), or 8-br-cGMP (100 μM, solid squares). Isolated symbols along the abscissa are median values for corresponding data shown above.
FIGS. 6A, 6B. Effects of purified myelin-associated glycoprotein (MAG) on growth cones of Xenopus spinal neurons. A gradient of purified MAG (150 μg/ml in the pipette) was applied in normal culture medium (open circles), in medium containing Sp-cAMPS (20 μM, solid circles), or in medium containing 8-br-cGMP (100 μM, solid squares). (A) Shown are distributions of turning angles under different conditions. Isolated symbols along the abscissa are median values for corresponding data shown above. (B) Shown are distributions of net neurite extension in the gradient under different conditions.
FIGS. 7A, 7B. Effects of reducing external Ca^2+. (A) Purified MAG-induced turning depends on [Ca^2+]o. Shown are distributions of turning angles in normal medium in the absence (solid circles) or presence of Sp-cAMPS (20 μM, solid squares), and in medium containing 1 μM [Ca^2+]o in the absence (open circles) or presence of Sp-cAMPS (20 μM, open squares), respectively. […]
8. […] Only growth cones with a net extension >5 μm over the one-hour period were scored.

B1: purified myelin-associated glycoprotein (MAG): Native MAG purified from myelin after extraction in 1% octylglucoside and DEAE-Sepharose separation (protein, UniProt P07722 20-626, looked up)
Myelin-associated glycoprotein: GHWGAWMPSSISAFEGTCVSIPCRFDFPDELRPAVVHGVWYFNSPYPKNYPPVVFKSRTQVVHESFQGRSRLLGDLGLRNCTLLLSTLSPELGGKYYFRGDLGGYNQYTFSEHSVLDIINTPNIVVPPEVVAGTEVEVSCMVPDNCPELRPELSWLGHEGLGEPTVLGRLREDEGTWVQVSLLHFVPTREANGHRLGCQAAFPNTTLQFEGYASLDVKYPPVIVEMNSSVEAIEGSHVSLLCGADSNPPPLLTWMRDGMVLREAVAESLYLDLEEVTPAEDGIYACLAENAYGQDNRTVELSVMYAPWKPTVNGTVVAVEGETVSILCSTQSNPDPILTIFKEKQILATVIYESQLQLELPAVTPEDDGEYWCVAENQYGQRATAFNLSVEFAPIILLESHCAAARDTVQCLCVVKSNPEPSVAFELPSRNVTVNETEREFVYSERSGLLLTSILTLRGQAQAPPRVICTSRNLYGTQSLELPFQGAHRLMWAKIGPVGAVVAFAILIAIVCYITQTRRKKNVTESPSFSAGDNPHVLYSPEFRISGAPDKYESEKRLGSERRLLGLRGEPPELDLSYSHSDLGKRPTKDSYTLTEELAEYAEIRVK
growth cone turning induced by the purified factor and its modulation: results similar to those with rMAG
